The series concerns the molecule itself. Description: crystal structure.

B1: GluA2 S1S2 flop (ligand-binding domain of rat GluA2o) (domain or fragment)
chain: GANKTVVVTTILESPYVMMKKNHEMLEGNERYEGYCVDLAAEIAKHCGFKYKLTIVGDGKYGARDADTKIWNGMVGELVYGKADIAIAPLTITLVREEVIDFSKPFMSLGISIMIKKGTPIESAEDLSKQTEIAYGTLDSGSTKEFFRRSKIAVFDKMWTYMRSAEPSVFVRTTAEGVARVRKSKGKYAYLLESTMNEYIEQRKPCDTMKVGGNLDSKGYGIATPKGSSLGNAVNLAVLKLNEQGLLDKLKNKWWYDKGECGS
Turning to B1, the binding result is “binds”.

The values above are taken from paper PMC3072023 (Biochemistry, 2010).
